Experimental data taken from article PMC5036783 (Biophysics, 2011).

Legend:
Experiment in all cases: pull-down; Ni-NTA resin holding histidine tagged fusion pHtrII from cell-free translation; untagged ppR 0.8 mM and pHtrII 0.08 mM mixed in buffer S (300 mM NaCl, 50 mM MES, 5 mM imidazole, pH 6.5) with 0.1% DDM, 1 h, room temperature; eluted ppR read by absorbance at 498 nm
Details in all cases: one partner purified
[1] = biological target: T1, thioredoxin-tagged pHtrII 1-114 (cell-free) (Natronomonas pharaonis, UniProt P42259 1-114)
T1 sequence (looked up): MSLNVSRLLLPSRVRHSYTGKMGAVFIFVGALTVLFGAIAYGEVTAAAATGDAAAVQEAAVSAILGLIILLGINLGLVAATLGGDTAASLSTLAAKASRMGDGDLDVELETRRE

[2] = biological target: T2, green fluorescent protein-tagged pHtrII 1-114 (cell-free) (Natronomonas pharaonis, UniProt P42259 1-114)
T2 sequence (looked up): T1 sequence (looked up)

[3] = biological target: T3, glutathione S-transferase-tagged pHtrII 1-114 (cell-free) (Natronomonas pharaonis, UniProt P42259 1-114)
T3 sequence (looked up): T1 sequence (looked up)

Measured: binding activity relative to pHtrII expressed in E. coli

B1: pharaonis phoborhodopsin (ppR), untagged (natural protein, Natronomonas pharaonis, UniProt P42196 1-239, looked up)
chain: MVGLTTLFWLGAIGMLVGTLAFAWAGRDAGSGERRYYVTLVGISGIAAVAYVVMALGVGWVPVAERTVFAPRYIDWILTTPLIVYFLGLLAGLDSREFGIVITLNTVVMLAGFAGAMVPGIERYALFGMGAVAFLGLVYYLVGPMTESASQRSSGIKSLYVRLRNLTVILWAIYPFIWLLGPPGVALLTPTVDVALIVYLDLVTKVGFGFIALDAAATLRAEHGESLAGVDTDAPAVAD
~50%: all assays above
